In patent US20160272683A1 (Novo Nordisk, published 2016):
Numbered stars: 1 amine (or outer) side, 2 acyl side, 3 side chain; on linkers, the order of the positions; unused ones are H or OH. * marks the point of attachment. C20 diacid = O=C(O)CCCCCCCCCCCCCCCCCCC(=O)*; γGlu = O=C(O)[C@H](CCC(=O)[*:2])N[*:1]; AEEA = NCCOCCOCC(=O)O

T1: human amylin 3(a) receptor (human calcitonin receptor co-expressed with RAMP-3) on BHK570/CRE-luc cells (human, UniProt P30988 25-474; O60896 24-148)
T1 sequence (looked up) 1: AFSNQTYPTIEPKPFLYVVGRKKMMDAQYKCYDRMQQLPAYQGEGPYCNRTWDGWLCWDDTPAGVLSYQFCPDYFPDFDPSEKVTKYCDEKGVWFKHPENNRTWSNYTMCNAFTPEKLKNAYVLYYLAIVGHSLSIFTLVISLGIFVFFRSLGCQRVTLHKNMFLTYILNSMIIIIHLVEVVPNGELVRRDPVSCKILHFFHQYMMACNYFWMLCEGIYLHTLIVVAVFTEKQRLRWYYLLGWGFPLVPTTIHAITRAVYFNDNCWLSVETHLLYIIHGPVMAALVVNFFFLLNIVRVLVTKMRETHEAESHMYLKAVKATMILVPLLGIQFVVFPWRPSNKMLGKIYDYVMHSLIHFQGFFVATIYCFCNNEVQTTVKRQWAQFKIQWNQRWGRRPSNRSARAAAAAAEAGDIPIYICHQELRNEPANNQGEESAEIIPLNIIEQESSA
T1 sequence (looked up) 2: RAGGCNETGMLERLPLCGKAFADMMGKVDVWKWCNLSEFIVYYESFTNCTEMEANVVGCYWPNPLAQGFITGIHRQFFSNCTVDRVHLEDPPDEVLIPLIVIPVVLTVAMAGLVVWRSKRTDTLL

T2: human calcitonin receptor on BHK570/CRE-luc cells (human, UniProt P30988 25-474)
T2 sequence (looked up): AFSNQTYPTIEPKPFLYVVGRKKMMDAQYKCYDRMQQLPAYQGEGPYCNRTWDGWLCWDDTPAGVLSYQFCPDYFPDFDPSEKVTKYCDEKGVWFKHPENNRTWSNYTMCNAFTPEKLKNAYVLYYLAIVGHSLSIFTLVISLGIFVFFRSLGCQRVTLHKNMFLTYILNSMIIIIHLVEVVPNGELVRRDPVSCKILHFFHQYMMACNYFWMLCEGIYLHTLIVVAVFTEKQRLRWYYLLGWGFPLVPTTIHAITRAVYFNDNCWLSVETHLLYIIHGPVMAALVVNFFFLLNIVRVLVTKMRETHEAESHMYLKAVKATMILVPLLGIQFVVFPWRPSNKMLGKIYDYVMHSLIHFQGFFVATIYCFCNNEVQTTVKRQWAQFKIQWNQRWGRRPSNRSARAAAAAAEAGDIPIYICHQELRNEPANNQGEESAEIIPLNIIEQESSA


How the values were obtained:
[1] = biological target: T1, human amylin 3(a) receptor (human …); experiment: cell-based or functional assay
[2] = biological target: T2, human calcitonin receptor on …; experiment: cell-based or functional assay

Binder	hAmylin-R funct. EC50 (pM), tested with HSA [1] [pM]	hCTR funct. EC50 (pM), tested with HSA [2] [pM]
{C20 diacid-γGlu}-ASELSTAVLGRLSQELHELQTYPRTETGSGTY-NH2 (SMILES CC(C)C[C@H](NC(=O)[C@H](CCCNC(=N)N)NC(=O)CNC(=O)[C@H](CC(C)C)NC(=O)[C@@H](NC(=O)[C@H](C)NC(=O)[C@@H](NC(=O)[C@H](CO)NC(=O)[C@H](CC(C)C)NC(=O)[C@H](CCC(=O)O)NC(=O)[C@H](CO)NC(=O)[C@H](C)NC(=O)CC[C@H](NC(=O)CCCCCCCCCCCCCCCCCCC(=O)O)C(=O)O)[C@@H](C)O)C(C)C)C(=O)N[C@@H](CO)C(=O)N[C@@H](CCC(N)=O)C(=O)N[C@@H](CCC(=O)O)C(=O)N[C@@H](CC(C)C)C(=O)N[C@@H](Cc1c[nH]cn1)C(=O)N[C@@H](CCC(=O)O)C(=O)N[C@@H](CC(C)C)C(=O)N[C@@H](CCC(N)=O)C(=O)N[C@H](C(=O)N[C@@H](Cc1ccc(O)cc1)C(=O)N1CCC[C@H]1C(=O)N[C@@H](CCCNC(=N)N)C(=O)N[C@H](C(=O)N[C@@H](CCC(=O)O)C(=O)N[C@H](C(=O)NCC(=O)N[C@@H](CO)C(=O)NCC(=O)N[C@H](C(=O)N[C@@H](Cc1ccc(O)cc1)C(N)=O)[C@@H](C)O)[C@@H](C)O)[C@@H](C)O)[C@@H](C)O) [[N-terminal(C20 diacid-gGlu), des1, 9V, 15Q, 21Q, 23Y, 30S, 31G, 32T, 33Y]mimylin]	142	97
{C20 diacid-γGlu}-ASGLSTAVLGRLSQELHELQTYPRTETGSQTY-NH2 (SMILES CC(C)C[C@H](NC(=O)CNC(=O)[C@H](CO)NC(=O)[C@H](C)NC(=O)CC[C@H](NC(=O)CCCCCCCCCCCCCCCCCCC(=O)O)C(=O)O)C(=O)N[C@@H](CO)C(=O)N[C@H](C(=O)N[C@@H](C)C(=O)N[C@H](C(=O)N[C@@H](CC(C)C)C(=O)NCC(=O)N[C@@H](CCCNC(=N)N)C(=O)N[C@@H](CC(C)C)C(=O)N[C@@H](CO)C(=O)N[C@@H](CCC(N)=O)C(=O)N[C@@H](CCC(=O)O)C(=O)N[C@@H](CC(C)C)C(=O)N[C@@H](Cc1c[nH]cn1)C(=O)N[C@@H](CCC(=O)O)C(=O)N[C@@H](CC(C)C)C(=O)N[C@@H](CCC(N)=O)C(=O)N[C@H](C(=O)N[C@@H](Cc1ccc(O)cc1)C(=O)N1CCC[C@H]1C(=O)N[C@@H](CCCNC(=N)N)C(=O)N[C@H](C(=O)N[C@@H](CCC(=O)O)C(=O)N[C@H](C(=O)NCC(=O)N[C@@H](CO)C(=O)N[C@@H](CCC(N)=O)C(=O)N[C@H](C(=O)N[C@@H](Cc1ccc(O)cc1)C(N)=O)[C@@H](C)O)[C@@H](C)O)[C@@H](C)O)[C@@H](C)O)C(C)C)[C@@H](C)O) [[N-terminal(C20 diacid-gGlu), des1, 4G, 9V, 15Q, 21Q, 23Y, 30S, 31Q, 32T, 33Y]mimylin]	86	61
{C20 diacid-γGlu}-EASQLSTAVLGRLSQELHELQTYPRTGTGSGTY-NH2 (SMILES CC(C)C[C@H](NC(=O)[C@H](CCCNC(=N)N)NC(=O)CNC(=O)[C@H](CC(C)C)NC(=O)[C@@H](NC(=O)[C@H](C)NC(=O)[C@@H](NC(=O)[C@H](CO)NC(=O)[C@H](CC(C)C)NC(=O)[C@H](CCC(N)=O)NC(=O)[C@H](CO)NC(=O)[C@H](C)NC(=O)[C@H](CCC(=O)O)NC(=O)CC[C@H](NC(=O)CCCCCCCCCCCCCCCCCCC(=O)O)C(=O)O)[C@@H](C)O)C(C)C)C(=O)N[C@@H](CO)C(=O)N[C@@H](CCC(N)=O)C(=O)N[C@@H](CCC(=O)O)C(=O)N[C@@H](CC(C)C)C(=O)N[C@@H](Cc1c[nH]cn1)C(=O)N[C@@H](CCC(=O)O)C(=O)N[C@@H](CC(C)C)C(=O)N[C@@H](CCC(N)=O)C(=O)N[C@H](C(=O)N[C@@H](Cc1ccc(O)cc1)C(=O)N1CCC[C@H]1C(=O)N[C@@H](CCCNC(=N)N)C(=O)N[C@H](C(=O)NCC(=O)N[C@H](C(=O)NCC(=O)N[C@@H](CO)C(=O)NCC(=O)N[C@H](C(=O)N[C@@H](Cc1ccc(O)cc1)C(N)=O)[C@@H](C)O)[C@@H](C)O)[C@@H](C)O)[C@@H](C)O) [[N-terminal(C20 diacid-gGlu), 4Q, 9V, 15Q, 21Q, 23Y, 27G, 30S, 31G, 32T, 33Y]mimylin]	546	366
{C20 diacid-γGlu-AEEA-AEEA}-ASGLSTAVLGRLSQELHELQTYPRTETGSGTY-NH2 (SMILES CC(C)C[C@H](NC(=O)CNC(=O)[C@H](CO)NC(=O)[C@H](C)NC(=O)COCCOCCNC(=O)COCCOCCNC(=O)CC[C@H](NC(=O)CCCCCCCCCCCCCCCCCCC(=O)O)C(=O)O)C(=O)N[C@@H](CO)C(=O)N[C@H](C(=O)N[C@@H](C)C(=O)N[C@H](C(=O)N[C@@H](CC(C)C)C(=O)NCC(=O)N[C@@H](CCCNC(=N)N)C(=O)N[C@@H](CC(C)C)C(=O)N[C@@H](CO)C(=O)N[C@@H](CCC(N)=O)C(=O)N[C@@H](CCC(=O)O)C(=O)N[C@@H](CC(C)C)C(=O)N[C@@H](Cc1c[nH]cn1)C(=O)N[C@@H](CCC(=O)O)C(=O)N[C@@H](CC(C)C)C(=O)N[C@@H](CCC(N)=O)C(=O)N[C@H](C(=O)N[C@@H](Cc1ccc(O)cc1)C(=O)N1CCC[C@H]1C(=O)N[C@@H](CCCNC(=N)N)C(=O)N[C@H](C(=O)N[C@@H](CCC(=O)O)C(=O)N[C@H](C(=O)NCC(=O)N[C@@H](CO)C(=O)NCC(=O)N[C@H](C(=O)N[C@@H](Cc1ccc(O)cc1)C(N)=O)[C@@H](C)O)[C@@H](C)O)[C@@H](C)O)[C@@H](C)O)C(C)C)[C@@H](C)O) [[N-terminal(C20 diacid-gGlu-2xOEG), des1, 4G, 9V, 15Q, 21Q, 23Y, 30S, 31G, 32T, 33Y]mimylin]	123	68
{C20 diacid-γGlu}-ASGLSTAVLGRLSQELHELQTYPRTETGSGTY-NH2 (SMILES CC(C)C[C@H](NC(=O)CNC(=O)[C@H](CO)NC(=O)[C@H](C)NC(=O)CC[C@H](NC(=O)CCCCCCCCCCCCCCCCCCC(=O)O)C(=O)O)C(=O)N[C@@H](CO)C(=O)N[C@H](C(=O)N[C@@H](C)C(=O)N[C@H](C(=O)N[C@@H](CC(C)C)C(=O)NCC(=O)N[C@@H](CCCNC(=N)N)C(=O)N[C@@H](CC(C)C)C(=O)N[C@@H](CO)C(=O)N[C@@H](CCC(N)=O)C(=O)N[C@@H](CCC(=O)O)C(=O)N[C@@H](CC(C)C)C(=O)N[C@@H](Cc1c[nH]cn1)C(=O)N[C@@H](CCC(=O)O)C(=O)N[C@@H](CC(C)C)C(=O)N[C@@H](CCC(N)=O)C(=O)N[C@H](C(=O)N[C@@H](Cc1ccc(O)cc1)C(=O)N1CCC[C@H]1C(=O)N[C@@H](CCCNC(=N)N)C(=O)N[C@H](C(=O)N[C@@H](CCC(=O)O)C(=O)N[C@H](C(=O)NCC(=O)N[C@@H](CO)C(=O)NCC(=O)N[C@H](C(=O)N[C@@H](Cc1ccc(O)cc1)C(N)=O)[C@@H](C)O)[C@@H](C)O)[C@@H](C)O)[C@@H](C)O)C(C)C)[C@@H](C)O) [[N-terminal(C20 diacid-gGlu), des1, 4G, 9V, 15Q, 21Q, 23Y, 30S, 31G, 32T, 33Y]mimylin]	105	54
{C20 diacid-γGlu}-ASGLSTAALGRLSQELHELQTYPHTETGSGTY-NH2 (SMILES CC(C)C[C@H](NC(=O)CNC(=O)[C@H](CO)NC(=O)[C@H](C)NC(=O)CC[C@H](NC(=O)CCCCCCCCCCCCCCCCCCC(=O)O)C(=O)O)C(=O)N[C@@H](CO)C(=O)N[C@H](C(=O)N[C@@H](C)C(=O)N[C@@H](C)C(=O)N[C@@H](CC(C)C)C(=O)NCC(=O)N[C@@H](CCCNC(=N)N)C(=O)N[C@@H](CC(C)C)C(=O)N[C@@H](CO)C(=O)N[C@@H](CCC(N)=O)C(=O)N[C@@H](CCC(=O)O)C(=O)N[C@@H](CC(C)C)C(=O)N[C@@H](Cc1c[nH]cn1)C(=O)N[C@@H](CCC(=O)O)C(=O)N[C@@H](CC(C)C)C(=O)N[C@@H](CCC(N)=O)C(=O)N[C@H](C(=O)N[C@@H](Cc1ccc(O)cc1)C(=O)N1CCC[C@H]1C(=O)N[C@@H](Cc1c[nH]cn1)C(=O)N[C@H](C(=O)N[C@@H](CCC(=O)O)C(=O)N[C@H](C(=O)NCC(=O)N[C@@H](CO)C(=O)NCC(=O)N[C@H](C(=O)N[C@@H](Cc1ccc(O)cc1)C(N)=O)[C@@H](C)O)[C@@H](C)O)[C@@H](C)O)[C@@H](C)O)[C@@H](C)O) [[N-terminal(C20 diacid-gGlu), des1, 4G, 15Q, 21Q, 23Y, 25H, 30S, 31G, 32T, 33Y]mimylin]	212	99
{C20 diacid-γGlu}-ASQLSTAVLGRLSQELHELQTYPRTETGSQTY-NH2 (SMILES CC(C)C[C@H](NC(=O)[C@H](CCCNC(=N)N)NC(=O)CNC(=O)[C@H](CC(C)C)NC(=O)[C@@H](NC(=O)[C@H](C)NC(=O)[C@@H](NC(=O)[C@H](CO)NC(=O)[C@H](CC(C)C)NC(=O)[C@H](CCC(N)=O)NC(=O)[C@H](CO)NC(=O)[C@H](C)NC(=O)CC[C@H](NC(=O)CCCCCCCCCCCCCCCCCCC(=O)O)C(=O)O)[C@@H](C)O)C(C)C)C(=O)N[C@@H](CO)C(=O)N[C@@H](CCC(N)=O)C(=O)N[C@@H](CCC(=O)O)C(=O)N[C@@H](CC(C)C)C(=O)N[C@@H](Cc1c[nH]cn1)C(=O)N[C@@H](CCC(=O)O)C(=O)N[C@@H](CC(C)C)C(=O)N[C@@H](CCC(N)=O)C(=O)N[C@H](C(=O)N[C@@H](Cc1ccc(O)cc1)C(=O)N1CCC[C@H]1C(=O)N[C@@H](CCCNC(=N)N)C(=O)N[C@H](C(=O)N[C@@H](CCC(=O)O)C(=O)N[C@H](C(=O)NCC(=O)N[C@@H](CO)C(=O)N[C@@H](CCC(N)=O)C(=O)N[C@H](C(=O)N[C@@H](Cc1ccc(O)cc1)C(N)=O)[C@@H](C)O)[C@@H](C)O)[C@@H](C)O)[C@@H](C)O) [[N-terminal(C20 diacid-gGlu), des1, 4Q, 9V, 15Q, 21Q, 23Y, 30S, 31Q, 32T, 33Y]mimylin]	67	36
